Source: patent JP2011147454A (dated 2011)
Like-named read-outs stand apart in the source and are kept apart here.

Key:
[1] = target: 組換え細菌由来のヒトIL-13 (Peprotech) (human) (UniProt P35225); test: cell-based or functional assay
[2] = target: 未変性の(天然に存在する)ヒトIL-13 (HDLM-2細胞から放出) (human) (UniProt P35225); test: cell-based or functional assay
[3] = target: ヒト変種IL-13 (Q130R) (バキュロウイルス発現, C末端親和性タグ付き) (human) (UniProt P35225); test: cell-based or functional assay
[4] = target: T1, 非ヒト霊長類IL-13 (アカゲザル/カニクイザル; バキュロウイルス発現, C末端親和性タグ付き) (rhesus / cynomolgus monkey); test: cell-based or functional assay
T1 chain: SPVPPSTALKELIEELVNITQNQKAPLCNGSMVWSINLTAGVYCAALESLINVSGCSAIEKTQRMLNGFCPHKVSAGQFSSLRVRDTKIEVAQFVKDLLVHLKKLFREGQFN

[5] = target: 野生型ヒトIL-13 (バキュロウイルス発現, C末端親和性タグ付き) (human) (UniProt P35225); test: cell-based or functional assay
[6] = target: 組換え細菌由来のヒトIL-13 (Peprotech) (human) (UniProt P35225); test: cell-based or functional assay; remark: listed apart in the source
[7] = target: 未変性の(天然に存在する)ヒトIL-13 (HDLM-2細胞から放出) (human) (UniProt P35225); test: cell-based or functional assay; remark: listed apart in the source
[8] = target: ヒト変種IL-13 (Q130R) (バキュロウイルス発現, C末端親和性タグ付き) (human) (UniProt P35225); test: cell-based or functional assay; remark: listed apart in the source
[9] = target: 組換え細菌由来のヒトIL-13 (Peprotech) (human) (UniProt P35225); test: SPR (BIAcore 2000), IgG4 amine-coupled to chip (~500 RU), IL-13 50-0.78 nM in solution
[10] = target: 組換えヒトエオタキシン-1 (R&D Systems) (human) (UniProt P51671); test: cell-based or functional assay
UniProt P51671, sequence (P51671 24-97 limits assumed): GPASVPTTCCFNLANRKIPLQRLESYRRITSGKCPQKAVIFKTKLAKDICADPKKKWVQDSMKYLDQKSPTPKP

[11] = target: T2, 組換え細菌由来のネズミIL-13 (Peprotech) (murine (mouse), UniProt P20109 21-131, limits assumed); test: cell-based or functional assay
T2 sequence (looked up): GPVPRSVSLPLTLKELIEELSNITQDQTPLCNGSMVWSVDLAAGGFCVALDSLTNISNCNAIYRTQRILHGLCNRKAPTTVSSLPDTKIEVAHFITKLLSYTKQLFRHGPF

[12] = target: T2, 組換え細菌由来のネズミIL-13 (Peprotech); test: SPR (BIAcore 2000), IgG4 amine-coupled to chip (~500 RU), IL-13 50-0.78 nM in solution

## JES10-5A2 (ラットIgG1, Biosource) (antibody)
[1]
  IC50, NHLFエオタキシン放出アッセイ: 0.623 nM
  IC50, TF-1細胞増殖アッセイ: 1.02 nM
[2]
  IC50, HDLM-2細胞増殖アッセイ: 10.7 nM

## B-B13 (マウスIgG1, Euroclone) (antibody)
[1]
  IC50, NHLFエオタキシン放出アッセイ: 0.219 nM
  IC50, TF-1細胞増殖アッセイ: 0.471 nM
[2]
  IC50, HDLM-2細胞増殖アッセイ: 16.7 nM

## BAK502G9 IgG4 (antibody)
[2]
  IC50, HDLM-2細胞増殖アッセイ: 4.6 nM

B1: BAK502G9 IgG4 (antibody, V domains shown)
VH: QVQLVQSGAEVKKPGASVKVSCKASGYTFTNYGLSWVRQAPGQGLEWMGWISANNGDTNYGQEFQGRVTMTTDTSTSTAYMELRSLRSDDTAVYYCARDSSSSWARWFFDLWGRGTLVTVSS
VL: SYVLTQPPSVSVAPGKTARITCGGNIIGSKLVHWYQQKPGQAPVLVIYDDGDRPSGIPERFSGSNSGNTATLTISRVEAGDEADYYCQVWDTGSDPVVFGGGTKLTVL
[3]
  IC50, TF-1細胞増殖アッセイ: 1.9 nM
[4]
  IC50, TF-1細胞増殖アッセイ: 2 nM

B2: BAK1183H4 IgG4 (antibody, from another filing, V domains shown)
VH: QVQLVQSGAEVKKPGASVKVSCKASGYTFTNYGLSWVRQAPGQGLEWMGWINYDGGNTQYGQEFQGRVTMTTDTSTSTAYMELRSLRSDDTAVYYCARDSSSSWARWFFDLWGRGTLVTVSS
VL: SYVLTQPPSVSVAPGKTARITCGGNIIGSKLVHWYQQKPGQAPVLVIYDDGDRPSGIPERFSGSNSGNTATLTISRVEAGDEADYYCQVWDTGSDPVVFGGGTKLTVL
[5]
  IC50, TF-1細胞増殖アッセイ: 0.9 nM
[6]
  IC50, HUVEC VCAM-1アップレギュレーション: 0.058 nM
  IC50, NHLFエオタキシン放出アッセイ: 0.118 nM
[7]
  IC50, HDLM-2細胞増殖アッセイ: 3.5 nM
[8]
  IC50, TF-1細胞増殖アッセイ: 1 nM
[9]
  Kd: 0.081 nM

B3: BAK1167F2 IgG4 (antibody, V domains shown)
VH: QVQLVQSGAEVKKPGASVKVSCKASGYTFEQTGVSWVRQAPGQGLEWMGWISANNGDTNYGQEFQGRVTMTTDTSTSTAYMELRSLRSDDTAVYYCARDSSSSWARWFFDLWGRGTLVTVSS
VL: SYVLTQPPSVSVAPGKTARITCGGNIIGSKLVHWYQQKPGQAPVLVIYDDGDRPSGIPERFSGSNSGNTATLTISRVEAGDEADYYCQVWDTGSDPVVFGGGTKLTVL
[5]
  IC50, TF-1細胞増殖アッセイ: 1 nM
[6]
  IC50, HUVEC VCAM-1アップレギュレーション: 0.055 nM
  IC50, NHLFエオタキシン放出アッセイ: 0.069 nM
[7]
  IC50, HDLM-2細胞増殖アッセイ: 1.1 nM
[8]
  IC50, TF-1細胞増殖アッセイ: 1.1 nM
[4]
  IC50, TF-1細胞増殖アッセイ: 1.3 nM
[9]
  Kd: 0.136 nM

B4: BAK1183H4 IgG4 (antibody, V domains shown)
VH: QVQLVQSGAEVKKPGASVKVSCKASGYTFTNYGLSWVRQAPGQGLEWMGWINYDGGNTQYGQEFQGRVTMTTDTSTSTAYMELRSLRSDDTAVYYCARDSSSSWARWFFDLWGRGTLVTVSS
VL: SYVLTQPPSVSVAPGKTARIPCGGNIIGSKLVHWYQQKPGQAPVLVIYDDGDRPSGIPERFSGSNSGNTATLTISRVEAGDEADYYCQVWDTGSDPVVFGGGTKLTVL
[4]
  IC50, TF-1細胞増殖アッセイ: 1.6 nM

B5: CAT-213 (antibody, from another filing, V domains shown)
VH: QVQLVQSGGGVVQPGRSLRLSCAASGFTFSSYGMHWVRQAPGKGLEWVAVISYDGSIKHYADSVKGRFTISRDNSKNTLYLQMNSLRTDDTAVYYCAGDTDYGDIDPWGQGTMVTVSS
VL: DIQMTQSPSSVSASVGDRVTITCRASQDISSWLAWYQQKPGKAPKLLIYAASSLQSGVPSRFSGSGSGTDFTLTISSLQPEDFATYYCQQASSFPSITFGQGTRLEIKR
[10]
  好酸球形態変化 (%ブランク形態変化), 100 nM CAT-213: 101%

B6: BAK209B11 scFv (scFv, V domains shown)
VH: VQLQESGGGGLVQPGGSLRLSCAASGFTFSSYGMSWVRQAPGKGLEWVSSISASGDSTFYADSVKGRFTISRDNNKNMVFLQVNSLRADDTAVYFCAKDWSQWLVGDAFDVWGRGTTVTVSS
VL: DIQLTQSPSTLSASVGDRVTITCRASQSVSLWVAWYQQRPGKAPKLLIYDGSTLQSGVPARFSGSGSGTEFTLTISSLQPDDFATYYCQQYKTFSTFGQGTKVEIK
[11]
  IC50, TF-1細胞増殖アッセイ: 185 nM

B7: BAK209B11 IgG4 (antibody, V domains shown)
VH: VQLQESGGGGLVQPGGSLRLSCAASGFTFSSYGMSWVRQAPGKGLEWVSSISASGDSTFYADSVKGRFTISRDNNKNMVFLQVNSLRADDTAVYFCAKDWSQWLVGDAFDVWGRGTTVTVSS
VL: DIQLTQSPSTLSASVGDRVTITCRASQSVSLWVAWYQQRPGKAPKLLIYDGSTLQSGVPARFSGSGSGTEFTLTISSLQPDDFATYYCQQYKTFSTFGQGTKVEIKR
[11]
  IC50, B9細胞増殖アッセイ: 0.776 nM
[12]
  Kd: 5.1 nM
